Assay [1] deals with T1, muNav1.7α (murine Nav1.7α) (murine, UniProt Q62205 1-1984).
T1 construct: HEK Jmp-In cells
Kind of assay: binding FACS; minus = lower activity than reference.

The target in assay [2] is T2, huNav1.7α (human Nav1.7 alpha subunit, expressed without β subunits) (human, UniProt Q15858 1-1988).
T2 construct: also called HEK293 human Nav1.7α; HEKa Nav1.7α
The experiment in a line: binding FACS, HEKa cells.

In assay [3] the target is T3, huNav1.7α + β1 (human Nav1.7α co-expressed with Navβ1) (human, UniProt Q15858 1-1988; Q07699 19-218).
T3 construct: also called HEK293 human Nav1.7α + β1; HEKa/β1 Nav1.7α
The experiment in a line: binding FACS, HEKa/β1 cells.

Assay [4] concerns the target T4, huNav1.7α + β1-β2-β3 (human Nav1.7α co-expressed with Navβ1, Navβ2 and Navβ3) (human).
T4 construct: also called huNav1.7-beta1-beta2-beta3
Kind of assay: binding FACS, HEK FlpIn cells.

For assay [5], the target named is T5, huNav157 chimera 14 + β1-β2-β3 (human).
T5 construct: Chimera of huNav1.7α (extracellular loops and transmembrane helices) and huNav1.5α (intracellular loops); also called Nav157ch14-β1-β2-β3; huNav157 chimera 14-beta1-beta2-beta3
The experiment in a line: binding FACS, HEK FlpIn cells.

In the next assay the target is T6, huNav157 chimera 14 (human).
T6 construct: Chimera without β subunits; also called Nav157ch14
The experiment in a line: binding FACS, HEK FlpIn cells.

As a reminder, the EC50 is the concentration needed to bring the measured effect to its halfway point.

Substitutions are numbered along the chain they refer to. Names and notes keep the numbering of the source.

B1: F010301871 (VHH)
VHH: EVQLVESGGGVVQPGGSLRLSCAATSRAFIRDVFTGWYRRVPGKERELVARIYNGGNTNYADFAKGRFTISRDNAKKMVYLQMNSLRPEDTALYYCLFSGTINTGREYRSGDYWGQGTLVTVSS
notes: also called F0103464B09(L11V, T24A, S68T, T79Y, R81Q, S82aN, N82bS, K83R, G88A, V89L); T24A
Turning to B1, the “EC50 fold change compared to reference” value in assay [1] is -2 fold.

B2: F010301872 (VHH)
VHH: B1 VHH with A24T, T25S
notes: also called F0103464B09(L11V, T25S, S68T, T79Y, R81Q, S82aN, N82bS, K83R, G88A, V89L); T25S
Turning to B2, the “EC50 fold change compared to reference” value in assay [1] was -2 fold.

B3: F010301873 (VHH)
VHH: B1 VHH with A24T, R40Q
notes: also called F0103464B09(L11V, R39Q, S68T, T79Y, R81Q, S82aN, N82bS, K83R, G88A, V89L); R39Q
With B3, in assay [1], the “EC50 fold change compared to reference” value is -4 fold.

B4: F010301876 (VHH)
VHH: B1 VHH with A24T, A64V
notes: also called F0103464B09(L11V, A63V, S68T, T79Y, R81Q, S82aN, N82bS, K83R, G88A, V89L); A63V
As for B4, the “EC50 fold change compared to reference” value in assay [1] was -2 fold.

B5: F010301850 (VHH)
VHH: EVQLVESGGGVVQPGGSLRLSCAASGRILRIGYMRWYRQAPGKQREFVARITDDSATGYADSVKGRFTISRDNAKNTVYLQMNSLRPEDTALYYCEALVTASVRGGSIHSGTYWGQGTLVTVSS
notes: also called F0103387G05(L11V, A14P, D23A, H37Y, G40A, A41P, D58G, N82bS, N83R, V89L, R105Q)
For the molecule B5, the Bmax in assay [2] was 100%. The half-maximal effective concentration (EC50) in assay [2] stood at 2.8 nM; in assay [3] it was 1.8 nM; in assay [4] it was 1.9 nM; in assay [5], 3 nM; with huNav157 chimera 14, 5.4 nM.

B6: F010302307 (VHH)
VHH: B5 VHH with N73A
notes: also called F0103387G05(L11V, A14P, D23A, H37Y, G40A, A41P, D58G, N73A, N82bS, N83R, V89L, R105Q)
B6 came in with a Bmax in assay [2] of 100%. Further, the concentration giving a half-maximal response (EC50) was 2.8 nM in assay [2], 1.9 nM in assay [3] and 2.9 nM in assay [4].

B7: F010302309 (VHH)
VHH: B5 VHH with N73Q
notes: also called F0103387G05(L11V, A14P, D23A, H37Y, G40A, A41P, D58G, N73Q, N82bS, N83R, V89L, R105Q)
Molecule B7 yielded a Bmax in assay [2] of 100%. Also, the concentration giving a half-maximal response (EC50) in assay [2] was determined as 2.2 nM; in assay [3] it was 1.5 nM; in assay [4], 2.3 nM.

B8: F010302308 (VHH)
VHH: B5 VHH with N73Y
notes: also called F0103387G05(L11V, A14P, D23A, H37Y, G40A, A41P, D58G, N73Y, N82bS, N83R, V89L, R105Q)
Molecule B8 returned a Bmax in assay [2] of 100%. In addition, the EC50 in assay [2] was determined as 1.8 nM; in assay [3], 1.3 nM; in assay [4] it was 2 nM.

For the origin of these results see patent US20240002497A1 (Merck Sharp & Dohme, published 2024).
